Assay results: PMC9696605 (Viruses, 2022)
Where no end group is shown, it is not given here. [ ]: non-standard residue; d: D form. pT = C[C@@H](OP(=O)(O)O)[C@H](N)C(=O)O

Key:
[1] = biological target: T1, SH3 domain of human Fyn (Fyn-SH3), 15N-labelled (human, UniProt P06241 82-142); experiment: NMR titration; conditions: both partners purified
T1 construct: also called 15N-Fyn-SH3

[2] = biological target: human neural precursor cell expressed developmentally down-regulated protein 4-like WW3* domain (hNedd4L-WW3*) (human, UniProt Q96PU5 497-530); experiment: ITC; conditions: both partners purified
Sequence of human neural precursor cell expressed developmentally down-regulated protein 4-like WW3* domain (hNedd4L-WW3*) (Q96PU5 497-530): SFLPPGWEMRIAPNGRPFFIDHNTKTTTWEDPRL

T1 sequence (P06241 82-142): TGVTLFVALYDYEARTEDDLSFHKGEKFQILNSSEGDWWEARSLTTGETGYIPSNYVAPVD

Row | Binder | Kd [1] [µM] | Kd [2] [µM]
1 | MDRPR[pT]PPPSYSEVL (source: synthetic peptide, bought: Genscript) [pU24-6B(1-15), U24-6B peptide with phospho-threonine 6] | ≥ 5000 | –
2 | MDRPRTPPPSYSEVL (source: synthetic peptide (Fmoc solid phase, C18 HPLC purified)) [U24-6B(1-15), 15-residue peptide of the N-terminal region of U24 from HHV-6B] | 500 ± 200 | 8.9
3 | MDPPRTPPPSYSEVL (source: synthetic peptide (Fmoc solid phase, C18 HPLC purified)) [U24-6A(1-15), 15-residue peptide of the N-terminal region of U24 from HHV-6A] | – | 8.5
4 | MDPPR[pT]PPPSYSEVL (source: synthetic peptide, bought: Genscript) [pU24-6A(1-15), U24-6A peptide with phospho-threonine 6] | ≥ 12000 | –
